Results from article PMC9876794 (2022).

B1: D155 (antibody, V domains shown)
VH: QLQLQESGPGLVKPSETLSLTCTVSGGSISSSSYYWGWIRQPPGKGLEWIGSIYYSGSTYYNPSLKSRVTISVDTSKNQFSLKLSSVTAADTAVYYCARQPYYYDSSGINRAFDIWGQGTMVTVSS
VL: QSVLTQPRSVSGSPGQSVTISCTGTSSDVGGYNYVSWYQQHPGKAPKLMIYDVSKRPSGVPDRFSGSKSGNTASLTISGLQAEDEADYYCCSYAGTVVFGGGTKLTVL
B2: C2712 (antibody, V domains shown)
VH: EVQLVESGGGLVQPGGSLRLSCVASGFTFSSDDIHWVRQATGKGLEWVSGIGTAGDTYYAGSVKGRFTISRENAKNSLYLQMKSLRAGDTAVYYCARGVQSWLRGYYYYYMDVWGKGTTVTVSS
VL: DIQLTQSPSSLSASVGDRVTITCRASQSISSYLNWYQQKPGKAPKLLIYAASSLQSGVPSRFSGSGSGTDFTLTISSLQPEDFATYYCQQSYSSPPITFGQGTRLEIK
B3: D007 (antibody, V domains shown)
VH: QVQLVESGGGVVQPGGSLRLSCAASGFTFSSYGMHWVRQAPGKGLEWVAFIRYDGSNKYYADSVKGRFTISRDNSKNTLYLQMNSLRAEDTAVYYCAKDQYYYGSGSYSDYWGQGTLVTVSS
VL: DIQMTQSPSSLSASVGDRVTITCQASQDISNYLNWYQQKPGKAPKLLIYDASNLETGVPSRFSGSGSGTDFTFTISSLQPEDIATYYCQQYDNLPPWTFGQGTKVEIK
B4: D009 (antibody, V domains shown)
VH: EVQLLESGGGLVQPGGSLRLSCAATGFTFGSYTMTWVRQAPGKGLEWVSSISVSGRRTYYAGSVQGRFTVSRDNSMNALFLQMNSLRADDTAVYYCARDAPREAYYDRTGHYIFYYGMDLWGQGTTVTVSS
VL: EIVMTQSPATLSVSPGERATLSCRASQSVSDNLAWYQQKPGQAPRLLIYGASTRAIGIPDRFTGSGSGTEFTLTISSLQSEDFAVYYCQHYNNGPSVGFGQGTRVEFK
B5: D083 (antibody, V domains shown)
VH: EVQLVQSGAEVKKPGESLKISCKGSGYSFTSHWIGWVRQMPGKGLEWMGIIYPGDSDTRYSPSFQGQVTISADKSISTAYLQWSSLKASDTAMYYCARHIKSDLWFGEKDSWGQGTLVTVSS
VL: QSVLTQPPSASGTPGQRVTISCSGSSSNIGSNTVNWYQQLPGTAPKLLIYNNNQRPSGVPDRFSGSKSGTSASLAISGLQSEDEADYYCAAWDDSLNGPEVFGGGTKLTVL
B6: D145 (antibody, V domains shown)
VH: QVQLVESGGGVVQPGRSLRLSCAASGFTFSSYGMHWVRQAPGKGLEWVAVISYDGSNKYYADSVKGRFTISRDNSKNTLYLQMNSLRAEDTAVYYCAKGSGPYYYDSSGYYSLFDYWGQGTLVTVSS
VL: EIVMTQSPATLSVSPGERATLSCRASQSISSNLAWYQQKPGQAPRLLIDGASTRATGIPARFSGSGSGTEFTLTISSLQSEDFAVYYCQQYNNWPTFGQGTKLEIK
B7: C2702 (antibody, V domains shown)
VH: EVQLVESGGGLVQPGGSLRLSCAASGFTFSSYSMNWVRQAPGKGLEWVSYISSSSSTIYYADSVKGRFTISRDNAKNSLYLQMNSLRDEDTAVYYCASFLWDHSGYDLLFGMDVWGQGTTVTVSS
VL: not shown
B8: C2739 (antibody, V domains shown)
VH: EVQLVESGGGLVQPGGSLRLSCAASGFTFSSYWMSWVRQAPGKGLEWVANIKKDGSEKYYVDSVKGRFTISRDNDKNSLYLQMNSLRAEDTAVYYCARKKYYYGDFDYWGQGTLVTVSS
VL: NFMLTQPHSVSESPGKTVTISCTRSSGSIASNYVQWYQQRPGSSPTTVIYEDNQRPSGVPDRFSGSIDSSSNSASLTISGLKTEDEADYYCQSYDSIIREVFGGGTKLTVL
B9: C2705 (antibody, V domains shown)
VH: EVQLVQSGAEVKKPGESLKISCKGSGYSFTSYWIGWVRQMPGKGLEWMGIIYPGDSDTRYSPSFQGQVTISADKSISTAYLQWSSLKASDTAMYYCARPVVTDYWYFDLWGRGTLVTVSS
VL: not shown
B10: D138 (antibody, V domains shown)
VH: QVQLVESGGGVVQPGRSLRLSCAASGFTFSSYGMHWVRQAPGKGLEWVAVISYDGSNKYYADSVKGRFTISRDNSKNTLYLQMNSLRAEDTAVYYCAKRAPYYYGPGGIDYWGQGTLVTVSS
VL: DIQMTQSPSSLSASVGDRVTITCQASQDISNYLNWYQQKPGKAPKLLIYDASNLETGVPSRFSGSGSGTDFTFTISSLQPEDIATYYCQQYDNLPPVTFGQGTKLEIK
B11: D008 (antibody, V domains shown)
VH: QVQLVESGGGVVQPGRSLRLSCAASGFTFRSYGMHWVRQAPGKGLEWVAVISYDGSTKYYADSVKGRFTISRDNSKNTLYLQMNSLRAEDTAVYYCAKGGYYYDSNTYYVYWGQGTLVTVSS
VL: DIQMTQSPSSLSASVGDRVTITCQASQDISNHLNWYQQKPGKAPKLLIYDASNLETGVPSRFSGSGSGTDFTFTISSLQPEDIATYYCQQYDNLPPITFGQGTRLEIK
B12: D063 (antibody, V domains shown)
VH: EVQLVQSGAEVKKPGESLKISCKGSGYSFTSYWIGWVRQMPGKGLEWMGIIYPGDSDTSPSFQGQVTISADKSISTAYLQWSSLKASDTAMYYCARVLNWNLGDYWGQGTLVTVSS
VL: not shown
B13: C2709 (antibody, V domains shown)
VH: EVQLVESGGGLVQPGGSLRLSCAASGFTVSSNYMSWVRQAPGKGLEWVSVIYSGGSTYYADSVKGRFTISRDNSKNTLYLQMNSLRAEDTAVYYCARDNEHYGSGSLTLDYWGQGTLVTVSS
VL: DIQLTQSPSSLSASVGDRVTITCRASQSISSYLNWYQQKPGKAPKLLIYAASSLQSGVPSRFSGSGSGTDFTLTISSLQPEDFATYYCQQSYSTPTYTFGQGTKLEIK
B14: D045 (antibody, V domains shown)
VH: EVQLVESGGGLVQPGGSLRLSCAASGFTFSSYSMNWVRQAPGKGLEWVSYISSSSSTIYYADSVKGRFTISRDNAKNSLYLQMNSLRDEDTAVYYCARHYGSGSSYYYYGMDVWGQGTTVTVSS
VL: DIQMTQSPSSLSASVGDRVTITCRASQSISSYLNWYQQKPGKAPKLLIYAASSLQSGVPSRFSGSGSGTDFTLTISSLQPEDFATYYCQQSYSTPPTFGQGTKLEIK
B15: D041 (antibody, V domains shown)
VH: EVQLVQSGAEVKKPGESLKISCKGSGYSFTSYWIGWVRQMPGKGLEWMGIIYPGDSDTRYSPSFQGQVTISADKSISTAYLQWSSLKASDTAMYYCARHPTVTGWFDPWGQGTLVTVSS
VL: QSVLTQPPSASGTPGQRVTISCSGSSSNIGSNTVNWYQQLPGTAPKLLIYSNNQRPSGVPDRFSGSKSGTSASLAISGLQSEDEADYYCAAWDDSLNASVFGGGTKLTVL
B16: C2723 (antibody, V domains shown)
VH: QVQLQESGPGLVKPSETLSLTCTVSGGSVSSGSYYWSWIRQPPGKGLEWIGYIYYSGSTNYNPSLKSRVTISVDTSKNQFSLKLSSVTAADTAVYYCARGALYDSSGYYPELPVYWGQGTLVTVSS
VL: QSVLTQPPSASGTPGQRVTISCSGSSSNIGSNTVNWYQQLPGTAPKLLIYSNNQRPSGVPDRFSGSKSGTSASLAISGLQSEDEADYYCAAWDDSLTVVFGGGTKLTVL
B17: D125 (antibody, V domains shown)
VH: QVQLQESGPGLVKPSETLSLTCSVSGVSISSYYWSWIRQPPGKGLEWIGYIYYSGSTNYNPSLKSRVTISVDTSKNQFSLKLSSVTAADTAVYYCARVVGDGYNFGYYYYMDVWGKGTTVTVSS
VL: QSVLTQPPSVSAAPGQKVTISCSGSSSNIGNNYVSWYQQLPGTAPKLLIYENNKRPSGIPDRFSGSKSGTSATLGITGLQTGDEADYYCGTWDSSLSAYVFGTGTKVTVL
B18: D048 (antibody, V domains shown)
VH: QLQLQESGPGLVKPSETLSLTCTVSGGSISSSSYYWGWIRQPPGKGLELIGTIYYSGSTYYNPSLKSRVTISVDTSKNQFSLKLSSVTAADTAVYYCARKGPYYYDRSGYYRPGPIDYWGQGTLVTVSS
VL: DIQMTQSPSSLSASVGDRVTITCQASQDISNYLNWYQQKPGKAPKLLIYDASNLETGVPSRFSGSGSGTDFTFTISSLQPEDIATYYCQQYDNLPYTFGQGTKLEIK
B19: C2716 (antibody, V domains shown)
VH: EVQLVESGGGLIQPGGSLRLSCAASGFIVSSNYMSWVRQAPGKGLEWVSVIYSGGSTYYADSVKGRFTISRDNSKNTLYLQMNSLRAEDTAVYYCARDLGSYGHFDYWGQGTLVTVSS
VL: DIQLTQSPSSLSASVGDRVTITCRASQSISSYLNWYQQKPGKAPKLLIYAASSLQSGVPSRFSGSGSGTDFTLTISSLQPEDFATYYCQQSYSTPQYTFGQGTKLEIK
B20: D068 (antibody, V domains shown)
VH: EVQLVESGGGLVKPGGSLRLSCAASGFTFSSYSMNWVRQAPGKGLEWVSSISSSSSYIYYADSVKGRFTISRDNAKNSLYLQMNSLRAEDTAVYYCARVDSSGWYTGDAFDIWGQGTMVTVSS
VL: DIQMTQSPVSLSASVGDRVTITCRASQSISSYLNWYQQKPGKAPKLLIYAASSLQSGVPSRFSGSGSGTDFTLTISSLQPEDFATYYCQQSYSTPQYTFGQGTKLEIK
B21: D124 (antibody, V domains shown)
VH: QVQLQQWGAGLLKPSETLSLTCAVYGGPFTGYSWTWIRQSPGKGLEWIGEINHSGSTSYNPSLQSRVTFSIDTSKNQFSLELSSVTAADTAVYFCARGNRNRYHTSDWYYYGMDVWGQGTTVTVSS
VL: DIQMTQSPSSLSAYVGDRVTITCRASQGINTYLAWYQQKPGKVPRLLIYGASTLQSGVPSRFSGSGSGTEFTLTISSLQPEDIATYYCQKYNSAPRTFGQGTKVEIK
B22: D144 (antibody, V domains shown)
VH: EVQLVESGGGLVQPGGSLRLSCAASGFTFSSYWMHWVRQAPGKGLVWVSRINSDGSSTSYADSVKGRFTISRDNAKNTLYLQMNSLRAEDTAVYYCARVPDTAMVTGINYYYYYGMDVWGQGTTVTVSS
VL: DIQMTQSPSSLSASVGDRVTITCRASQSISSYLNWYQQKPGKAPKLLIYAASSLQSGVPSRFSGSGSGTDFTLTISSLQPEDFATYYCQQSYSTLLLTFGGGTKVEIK
B23: D066 (antibody, V domains shown)
VH: QVQLVQSGAEVKKPGASVKVSCKASEYTFTNYYMHWVRQAPGQGLEWMGIINPSAGSTSYAQKFQGRVRMTSDTSTNTVYMELSSLRSEDTAVYYCARGVLVPAAEYYFDYWGQGTLVTVSS
VL: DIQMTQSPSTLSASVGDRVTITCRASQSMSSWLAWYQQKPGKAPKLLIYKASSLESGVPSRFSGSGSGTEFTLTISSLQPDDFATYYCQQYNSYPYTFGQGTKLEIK
B24: C2728 (antibody, V domains shown)
VH: QVQLVESGGGVVQPGRSLRLSCAASGFTFSSYGMHWVRQAPGKGLEWVAVIWYDGSNKYYADSVKGRFTISRDNSKNTLYLQMNSLRAEDTAVYYCARERPHPSITMIVPNNYGMDVWGQGTTVTVSS
VL: not shown
B25: C2708 (antibody, V domains shown)
VH: EVQLVESGGVVVQPGGSLRLSCAASGFTFDDYAMHWVRQAPGKGLEWVSLISWDGGSTYYADSVKGRFTISRDNSKNSLYLQMNSLRAEDTALYYCAKDIEGGSGWSFDYWGQGTLVTVSS
VL: QSALTQPPSVSGSPGQSVTISCTGTSSDVGSYNRVSWYQQPPGTAPKLMIYEVSNRPSGVPDRFSGSKSGNTASLTISGLQAEDEADYYCSSYTSSSTVVFGGGTKLTVL
B26: D101 (antibody, V domains shown)
VH: EVQLVESGGGLVQPGGSLRLSCAASGFTFSNYDMHWVRQATGKGLEWVSTIGTVGDTYYPGSVKGRFTISRENAKNSLYLQMNSLRAGDTAVYYCARGGGMTTVTLDVWGQGTTVTVSS
VL: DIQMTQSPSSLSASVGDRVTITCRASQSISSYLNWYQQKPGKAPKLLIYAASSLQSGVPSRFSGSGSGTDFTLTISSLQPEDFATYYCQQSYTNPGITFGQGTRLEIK

Biological target: T1, SARS-CoV-2 spike RBD (WT) (Severe acute respiratory syndrome …, UniProt P0DTC2)
Experiment: ELISA
Set-up: unit not given here

Point of comparison: B20, binding score 286. Against it:
- B1 — higher, 1000
- B2 — lower, 7.83
- B3 — higher, 8280
- B4 — higher, 2390
- B5 — lower, 62.7
- B6 — lower, 0.826
- B7 — higher, 295
- B8 — lower, 52.3
- B9 — higher, 867
- B10 — higher, 368
- B11 — lower, 12.4
- B12 — higher, 9040
- B13 — higher, 5050
- B14 — lower, 15.7
- B15 — lower, 33
- B16 — lower, 39.7
- B17 — higher, 575
- B18 — lower, 4.6
- B19 — higher, 1100
- B21 — higher, 2540
- B22 — lower, 24.8
- B23 — lower, 11.9
- B24 — lower, 132
- B25 — higher, 7040
- B26 — lower, 8.93

Biological target: T1, SARS-CoV-2 spike RBD (WT)
Experiment: BLI

Point of comparison: B12, Kd 94.8 nM. Against it:
- B1 — within 1.5-fold, 116 nM
- B2 — 4.8-fold lower, 19.6 nM
- B3 — 71-fold higher, 6720 nM
- B4 — 57-fold higher, 5440 nM
- B5 — 7.7-fold lower, 12.3 nM
- B6 — 2-fold lower, 46.4 nM
- B7 — within 1.5-fold, 125 nM
- B8 — 3-fold higher, 287 nM
- B9 — 6.8-fold lower, 14 nM
- B10 — 2.1-fold higher, 201 nM
- B11 — 9-fold lower, 10.5 nM
- B13 — within 1.5-fold, 115 nM
- B14 — 1.6-fold lower, 61.1 nM
- B15 — 7.2-fold lower, 13.2 nM
- B16 — 4.5-fold lower, 20.9 nM
- B17 — within 1.5-fold, 103 nM
- B18 — 4.1-fold lower, 23.4 nM
- B19 — 3.9-fold higher, 370 nM
- B20 — 2.1-fold higher, 196 nM
- B21 — 2.3-fold higher, 219 nM
- B22 — 4.9-fold lower, 19.2 nM
- B23 — 12-fold lower, 7.6 nM
- B24 — 5.7-fold higher, 536 nM
- B25 — 6.3-fold higher, 597 nM
- B26 — 2-fold lower, 46.9 nM
